Source: patent publication US20240209086A1 (PETMEDIX, published 2024)
Residue numbers refer to the chain shown, from its start.

T1: canine CD20 on cells (HEK293, MDCK II, CLBL-1 or native B cells) (canine, UniProt Q3C2E2 1-297)
T1 construct: also called dCD20; cCD20
T1 chain: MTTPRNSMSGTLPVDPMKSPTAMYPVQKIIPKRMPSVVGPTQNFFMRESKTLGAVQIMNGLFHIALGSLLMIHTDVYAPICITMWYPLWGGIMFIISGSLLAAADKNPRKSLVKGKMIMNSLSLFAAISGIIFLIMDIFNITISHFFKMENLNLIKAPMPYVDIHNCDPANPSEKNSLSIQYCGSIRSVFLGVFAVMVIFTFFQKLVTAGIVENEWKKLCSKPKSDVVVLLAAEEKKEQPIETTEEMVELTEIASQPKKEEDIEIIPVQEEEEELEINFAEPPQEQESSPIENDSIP

B1: PMX191 (monospecific anti-canine CD3, canine IgG-B effector function deficient Fc) (antibody, V domains shown)
VH: EVQLVESGGDLVKPAGSLRLSCVASGFTFSDYSMSWVRQGPEKGLQLVAGMNSDGSTTYYTDAVRGRFTISRDNAKNTMYLQMNSLRDEDTAIYYCAKGAAAPDYWGQGTLVTVSS
VL: SYELTQPPSVNVTLRETAHITCGGDRIGSKYVQWIQQIPGQAPVVIIYKDNNRPTGIPERFSGANSGNTATLTISGALAEDEADYYCQVGDNYTWVFGEGTQLTVL
B2: PMX192 (monospecific anti-canine CD3, canine IgG-B effector function deficient Fc) (antibody, V domains shown)
VH: EVQLVESGGDLVKPAGSLRLSCVASGFTFSDYSMSWVRQAPEKGLQLVAGINGDGSTTYYTDAVKGRFTISRDNAKNTVYLQMNSLRAEDTAMYYCAKGAGTGDFWGQGTLVTVSS
VL: B1 VL with D25A, R26S, S29R, N51S, N92S, Y93G, T94A
B3: PMX200 (monospecific anti-canine CD3, canine IgG-B effector function deficient Fc) (antibody, V domains shown)
VH: ELTLQESGPGLVKPSQTLSLTCIVSGGSVTSSYYWNWIRQSPGRGLEWMGYWTGNTNYNPALQGRIFITADTAKNQFSLQLRSMTTEDTAVYYCARGGYGYHYGMDYWGHGTSVFVSS
VL: SYVLTQLPSKSVALKQPAHITCGGDNIGSKRVHWYQQKLGQAPALIISFDNSRPTGIPERFSGANSGNTATLTISGALAEDEADYYCQVWDSTAKASIFGGGTHLTVL
B4: PMX186 (monospecific anti-canine CD3, canine IgG-B effector function deficient Fc) (antibody)
heavy: EVKLVESGGDLVKPGGSLRLSCVASGVTFSRYYMSWVRQAPGKGLQWVAYINSGGSTTSYADAVKGRFTISRDNAKNTLYLQMNSLRAEDTAVYYCASEGVGEIYGYKDFGMDYWGHGTSLFVSSASTTAPSVFPLAPSCGSTSGSTVALACLVSGYFPEPVTVSWNSGSLTSGVHTFPSVLQSSGLYSLSSMVTVPSSRWPSETFTCNVAHPASKTKVDKPVPKRENGRVPRPPDCPKCPAPESLGGPSVFIFPPKPKDTLLIARTPEVTCVVVDLGREDPEVQISWFVDGKQMQTAKTQPREEQFNGTYRVVSVLPIGHQDWLKGKQFTCKVNHIGLPSPIERTISKARGQAHQPSVYVLPPSREELSKNTVSLTCLIKDFFPPDIDVEWQSNGQQEPESKYRTTPPQLDEDGSYFLYSKLSVDKSRWQRGDTFICAVMHEALHNHYTQKSLSHSPGK
VL: SYVLTQLPSKNVTLKQPAHITCGGDNIGSKSVHWYQQKLGQAPVLIIYYDSRRPTGIPERFSGANSGNTATLTISGALAEDEADYYCQVWDSSAKAWVFGEGTQLTVL
B5: PMX190 (monospecific anti-canine CD3, canine IgG-B effector function deficient Fc) (antibody)
heavy: EVQLVESGGDLVKPGGSLRLSCVASGFTFSSYQMSWVRQAPGKGLQWVAYISSGGGRTTYADAVRGRLTISRDNAKNTLYLQMNSLRAEDAAVYYCAREGGGEIYGYKDYGMDYWGHGTSLFVSSASTTAPSVFPLAPSCGSTSGSTVALACLVSGYFPEPVTVSWNSGSLTSGVHTFPSVLQSSGLYSLSSMVTVPSSRWPSETFTCNVAHPASKTKVDKPVPKRENGRVPRPPDCPKCPAPESLGGPSVFIFPPKPKDTLLIARTPEVTCVVVDLGREDPEVQISWFVDGKQMQTAKTQPREEQFNGTYRVVSVLPIGHQDWLKGKQFTCKVNHIGLPSPIERTISKARGQAHQPSVYVLPPSREELSKNTVSLTCLIKDFFPPDIDVEWQSNGQQEPESKYRTTPPQLDEDGSYFLYSKLSVDKSRWQRGDTFICAVMHEALHNHYTQKSLSHSPGK
VL: B4 VL with R52S
B6: PMX227 (monospecific anti-canine CD20, canine IgG-B, lambda C5) (antibody, V domains shown)
VH: EMQLVESGGALVKPGGSLRLSCVASGFTFRRYHMSWVRQAPGQGLQWVAYIDSDGSPTSYGDSVKGRFTISRDNAKNTLFLQMNSLRVDDTAVYYCTTLDYWGRGTLVTVSS
VL: SYVLTQVPSKNVTLKQPAHITCGGDNIGGKSVHWYQQKLGQAPLLIIYYDTRRPTGIPERFSGANSGNTATLTISRALAEDEADYYCQVWDSSGNVFGGGTHLTVIG
B7: PMX229 (monospecific anti-canine CD20, canine IgG-B, lambda C5) (antibody, V domains shown)
VH: EVQLVESGGDLVKPGGSLRLSCVASGITFSRYHMSWVRQAPGKGLQWVAFINTGRSSTNYADAVAGRFTISRDNAKNTLYLQMNGLTVEDTAVYYCSTLDYWGQGTLVTVSS
VL: B6 VL with V7L, N11S, G29S, L44I, T51N, R52N, R76G, Q88H, G94V, I106L
B8: PMX228 (monospecific anti-canine CD20, canine IgG-B, lambda C5) (antibody, V domains shown)
VH: EVQLVQSGGDLVKPGGSLRLSCVASGYTFTRYHMSWVRQAPGKGLQWVAFINSDGTGITYGDAVKGRFTISRDNAKNTLYLQMNSLRAEDTAIYYCTTFDSWGQGTLVTVSS
VL: B6 VL with V7L, G29S, L44I, T51S, R76G, I106L
B9: PMX230 (monospecific anti-canine CD20, canine IgG-B, lambda C5) (antibody, V domains shown)
VH: EVHLVESGGDLVKPGGSLRLSCVASGITFNRYYMNWVRQTPGKGLQWVAYIDSGGSPTTYADAVKGRFTISRDNAKNTLYLQMNSLRAEDTAVYYCTSFDYWGQGTLVTVSS
VL: B6 VL with V7L, G29S, L44I, R52S, R76G, G94A, I106L
B10: PMX236 (antibody, V domains shown)
VH: B9 VH with H3Q, I27L, N30S, T40A, T59N, T97S
VL: B6 VL with L4V, V7L, K10N, N11T, G29S, L44V, T51S, R76G, G94A, I106L
notes: also called PMX236 (monospecific anti-canine CD20, canine IgG-B, lambda C5)
B11: PMX237 (monospecific anti-canine CD20, canine IgG-B, lambda C5) (antibody, V domains shown)
VH: B9 VH with H3Q, I27L, N30S, T40A, D52N, P57S, T59D, A88V, T97A
VL: SYVLTQLPSKKVTLKQSAHITCGGDNIGSKSVHWYQQKLGQAPVLIIYHDSSRPTGIPERFSGANSGNTATLTISGALAEDEADYYCQVWDSSANVFGGGTHLTVLG
B12: PMX265 (monospecific anti-canine CD20, canine IgG-B, lambda C5) (antibody, V domains shown)
VH: B8 VH with T30S
VL: B11 VL with K11N, S17P, V44I, H49Y, S52R, A94G
B13: PMX240 (monospecific anti-canine CD20, canine IgG-B, lambda C5) (antibody, V domains shown)
VH: B7 VH with I27L, T53S, S57D, N59T, A65K, G85S, T87R, V88A, S97T, L99F
VL: B11 VL with K11N, S17P, V44A, H49Y
B14: PMX242 (monospecific anti-canine CD20, canine IgG-B, lambda C5) (antibody, V domains shown)
VH: EIQLVESGGDLVKPGGSLRLSCVASGFTFSRYHMSWVRQAPGKGLQWVAYINTGGSNTNYADAVKGRFTISRDNAKNTLYLQMNSLRAEDTAVYYCTTLDSWGQGTLVTVSS
VL: B11 VL with S9F, K11N, S17P, H49Y, S52R, A94V
B15: PMX231 (monospecific anti-canine CD20, canine IgG-B, lambda C5) (antibody, V domains shown)
VH: EVQLVESGGDLVKPGGSLRLSCVASGLTFSRYHMSWIRQAPGKGLQWVAYISSGGSSTNYAGSVKGRFTVSRDNAKNTLYLQMNSLRAEDTAVYYCTSLDYWGQGTLVTVSS
VL: B11 VL with K11N, S17P, H49Y, S52R, A94D
B16: PMX239 (monospecific anti-canine CD20, canine IgG-B, lambda C5) (antibody, V domains shown)
VH: B9 VH with H3Q, I27F, N30S, T40A, Y50F, D52T, P57S, T59S, A61G
VL: B11 VL with K11N, S17P, H49Y, D50A
B17: PMX234 (monospecific anti-canine CD20, canine IgG-B, lambda C5) (antibody, V domains shown)
VH: B14 VH with I2L, H33Y, M34L, S35N, Y50F, N52T, T53S, N57S, T98S, L99F
VL: B11 VL with K11N, S17P, H49Y
B18: PMX238 (monospecific anti-canine CD20, canine IgG-B, lambda C5) (antibody, V domains shown)
VH: B7 VH with I27F, G85S, T87R, V88A
VL: B11 VL with K11N, S17P, H49Y

The binders below were run against canine CD3 on canine T cells (canine PBMC) (canine, UniProt P27597 22-202) (assay: cell-based or functional assay).
canine CD3 on canine T cells (canine PBMC), sequence (P27597 22-202 limits assumed, chain 1 of 3): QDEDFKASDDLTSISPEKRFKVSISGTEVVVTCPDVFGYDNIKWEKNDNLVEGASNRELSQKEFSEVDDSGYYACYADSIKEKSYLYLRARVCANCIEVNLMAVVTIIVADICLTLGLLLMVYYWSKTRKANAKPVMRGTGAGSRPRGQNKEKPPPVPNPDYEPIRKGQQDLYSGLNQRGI
canine CD3 on canine T cells (canine PBMC), sequence (chain, as listed by the source limits assumed, chain 2 of 3): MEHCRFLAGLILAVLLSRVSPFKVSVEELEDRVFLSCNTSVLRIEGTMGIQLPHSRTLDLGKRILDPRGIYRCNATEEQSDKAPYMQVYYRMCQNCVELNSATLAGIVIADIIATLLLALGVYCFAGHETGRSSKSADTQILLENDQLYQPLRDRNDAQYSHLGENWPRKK
canine CD3 on canine T cells (canine PBMC), sequence (chain, as listed by the source limits assumed, chain 3 of 3): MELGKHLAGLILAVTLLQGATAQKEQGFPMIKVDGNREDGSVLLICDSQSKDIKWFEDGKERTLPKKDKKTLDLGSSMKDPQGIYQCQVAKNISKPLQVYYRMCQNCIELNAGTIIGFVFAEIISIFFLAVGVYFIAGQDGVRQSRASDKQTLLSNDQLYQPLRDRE

CD25 Activation, Day 6, IS	CD25 Activation, Day 6, PB	CD25 Activation, Day 9, IS	CD25 Activation, Day 9, PB	IFNy Concentration pg/ml, Day 6, IS	IFNy Concentration pg/ml, Day 9, IS	IFNy Concentration pg/ml, Day 9, PB	Ki67 Proliferation, Day 6, IS	Ki67 Proliferation, Day 6, PB	Ki67 Proliferation, Day 9, IS	Binder
8.97	10.5	14.2	14.9	31.9 pg/mL	370 pg/mL	744 pg/mL	0.66	0.35	2.89	B1
10.4	12.7	10.3	11.3	75.9 pg/mL	210 pg/mL	758 pg/mL	1.29	0.66	3.65	B2
8.83	19.5	13.1	15	59.6 pg/mL	363 pg/mL	822 pg/mL	0.76	2.92	1.29	B3
10.5	20	10.9	17.6	27.7 pg/mL	217 pg/mL	1220 pg/mL	2.63	0.2	1.09	B4
11.3	14.8	13.5	11.8	54.4 pg/mL	384 pg/mL	699 pg/mL	0.73	0.98	0.9	B5

Same assay, conditions: not given

Ki67 Proliferation, Day 9, PB	Binder
0.6	B1
1.56	B2
0.78	B3
0.74	B4
2.73	B5

Target: T1, canine CD20 on cells (HEK293, MDCK II, …)
Experiment: flow cytometry, canine CD20 HEK293 cells, 10 µg/ml, FITC anti-canine IgG
Procedure: A CD20 binding screen was performed on candidate proteins produced from the canine CD20 immunisation as described in Examples 2 and 3. CHO cells supernatants containing candidate antibodies were diluted to 10 μg/ml in FACS buffer (PBS containing 3% FBS) and screened for their ability to bind canine CD20 expressed on cell surface. In brief, 1-2×10⁵ canine CD20-expressing HEK cells were incubated with candidate mAbs for one hour at 4° C., at a fixed concentration of 10 μg/ml followed by incubation with 5 μg/ml of FITC-conjugated anti-canine IgG secondary antibody (Bethyl Laboratories) for 1 hour at 4° C. Cells incubated with anti-canine IgG FITC secondary antibody and without primary anti-canine CD20 antibody, or with isotype control primary antibody, were used as negative controls. The data were acquired on either a Beckman Coulter CytoFLEX or a BD Accuri C6 Plus flow cytometer and analysed using FlowJo software.

binding result	Binder
binds	B6
binds	B7
binds	B8
binds	B9
binds	B10
binds	B11
binds	B12
binds	B13
binds	B14
binds	B15
binds	B16
binds	B17
binds	B18
